Target: T1, Drosophila Slit D2 (second leucine-rich repeat domain) (Drosophila, UniProt P24014 310-526, two N-linked glycans)
T1 sequence: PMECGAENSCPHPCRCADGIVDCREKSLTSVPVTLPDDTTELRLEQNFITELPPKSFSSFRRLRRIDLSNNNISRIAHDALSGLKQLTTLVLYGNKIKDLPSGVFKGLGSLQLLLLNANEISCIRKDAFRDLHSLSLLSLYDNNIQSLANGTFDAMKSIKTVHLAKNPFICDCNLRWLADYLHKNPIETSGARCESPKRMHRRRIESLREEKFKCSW
Assay: SEC

B1: Drosophila Robo IG1–2 (domain or fragment)
chain: not shown
  stoichiometry N: 1

From article PMC3680705 (The Journal of biological chemistry, 2006)
